We go through six molecules from patent US20240325555A1 (LANOVA MEDICINES, published 2024).

One test concerns the target cynomolgus LIV-1 (cynomolgus, UniProt A0A2K5WH46 30-741). In words: FACS, HEK293/Cyno_LIV-1 cells. How it is done: (§1) In this example, cell based binding of chimeric Abs on human and cyno LIV-1 over-expressing HEK 293 cells were assessed using flow cytometry.
(§2) Briefly, cells were incubated with chimeric Abs (from 100 nM, 5 folds dilution, 8 points). After incubation at 4° C. for 60 minutes, the cells were washed with 2% FBS/PBS buffer twice, then stained with fluorescent conjugated secondary antibody at 4° C. for 30 minutes. After that the cells were washed twice and resuspended in 80 μL of 2% FBS/PBS buffer. Fluorescent signal of binding was detected using Agilent. The EC50 was calculated using the GraphPad Software (LaJolla, CA).

The target in the next test is T1, human LIV-1 (human, UniProt Q13433 29-755).
T1 construct: whole, on cells; also called H-LIV1
T1 sequence (looked up): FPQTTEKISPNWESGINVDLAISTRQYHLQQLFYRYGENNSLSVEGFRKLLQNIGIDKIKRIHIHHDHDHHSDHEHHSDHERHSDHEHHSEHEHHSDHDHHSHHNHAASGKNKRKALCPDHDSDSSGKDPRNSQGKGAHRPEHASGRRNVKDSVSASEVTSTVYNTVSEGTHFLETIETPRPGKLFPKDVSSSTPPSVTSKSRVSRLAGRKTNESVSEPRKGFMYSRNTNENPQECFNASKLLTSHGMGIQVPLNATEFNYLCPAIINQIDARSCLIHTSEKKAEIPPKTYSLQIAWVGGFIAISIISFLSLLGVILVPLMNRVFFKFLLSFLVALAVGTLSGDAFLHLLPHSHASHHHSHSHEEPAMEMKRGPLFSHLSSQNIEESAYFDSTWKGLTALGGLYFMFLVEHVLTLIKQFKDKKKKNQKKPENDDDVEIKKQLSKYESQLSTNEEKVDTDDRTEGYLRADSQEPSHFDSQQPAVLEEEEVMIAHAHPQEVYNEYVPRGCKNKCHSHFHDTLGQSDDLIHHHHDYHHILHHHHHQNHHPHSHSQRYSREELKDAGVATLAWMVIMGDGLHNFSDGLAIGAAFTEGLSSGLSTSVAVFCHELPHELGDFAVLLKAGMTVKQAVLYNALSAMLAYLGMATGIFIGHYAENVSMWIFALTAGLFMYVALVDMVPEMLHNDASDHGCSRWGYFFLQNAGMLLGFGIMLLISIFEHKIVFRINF
In words: FACS, HEK293/H_LIV-1 cells. As for the experimental part:
as §1, §2

B1: 79F5G5 (antibody, V domains shown)
VH: EVQLQQSGAELVRSGASVKLSCTASGFNIKDYYMHWVKQRPEQGLEWIGWIDPENGDTEYAPKFQGKATLTADTSSNTAYLQLSSLTFEDTAVYYCPHGGGLRVFDYWGQGTSLTVSS
VL: DVLMTQIPLSLSVSLGDQASISCRSSQSIVHSNGNTYLEWYLQKPGQSPKLLIYKVSNRFSGVPDRFSGSGSGTDFTLKISRVEAEDLGVYYCFQGSHVPWTFGGGTKLEIK
notes: Tested as chimeric antibody
In the case of B1, in the test with cynomolgus LIV-1, a half-maximal effect (EC50) was put at 1.85 nM and the “Top (MFI)” value was 7020 MFI. Besides, in the test with human LIV-1, a half-maximal effect (EC50) was put at 9.45 nM and the “Top (MFI)” value was determined as 17500 MFI.

B2: 94C4B9 (antibody, V domains shown)
VH: EVQLQQSGTVLARPGASVKMSCKASGYTFINYWMHWVKQRPGQGLEWIGAFYPGNSDTSYNQKFKDKAKLTAVTSTSTAYMEFSSLTNEDSAVYYCTRDFTAVPYFDYWGQGTTLTVSS
VL: DILMTQTPLSLPVSLGDQASISCRSSQSIVHSNGNTYLEWYLQKPGQSPKLLIYKVSNRFSGVPDRFSGSGSGTDFTLKISRVEAEDLGVYYCFQGSYVPLTFGVGTKLELK
notes: Tested as chimeric antibody
For B2, in the test with cynomolgus LIV-1, the EC50 turned out to be 0.15 nM and the “Top (MFI)” value amounted to 7860 MFI. For the same molecule, in the test with human LIV-1, the EC50 is 0.22 nM and the “Top (MFI)” value came out at 11600 MFI.

B3: 99B3E8 (antibody, V domains shown)
VH: EVQLQQSGTVLARPGTSVKMSCKASGYTFINYWMHWVRQRPGQGLEWIGAFYPGNSDTSYNQNFKDKAKLTAVTSTSTAYMEFSSLTNEDSAVYYCTRDFTAVPFFDYWGQGTTLTVSS
VL: DVLMTQTPLSLPVSLGDQASISCRSSQSIVHSNGNTYLEWYLQKPGQSPKLLIYKVSNRFSGVPDRFSGSGSGTDFTLKISRVEAEDLGVYYCFQGSYVPLTFGVGTKLELK
notes: Tested as chimeric antibody
Take B3: in the test with cynomolgus LIV-1, a half-maximal effect (EC50) was put at 0.34 nM and the “Top (MFI)” value amounted to 8240 MFI. Besides, in the test with human LIV-1, the EC50 is 1.04 nM and the “Top (MFI)” value came out at 12600 MFI.

B4: 90H4F8 (antibody, V domains shown)
VH: QVQLQQSGPELVKPGASVRISCKASGYTFTSYHMHWVKQRPGQGLEWIGWIYPGNVKNQSNEKFKGKATLTADKSSSTAYMHLSSLTSEDSAVYFCARSDITRAFFAYWGQGTLVTVSA
VL: DVLMTQTPLSLPVSLGDQASISCRSSQSIVHSNGNTYLEWYLQKPGQSPKLLIYKVSNRFSGVPDRFSGSGSGTDFTLKISRVEAEDLGVYYCFQGSHGPYTFGGGTKLEIK
notes: Tested as chimeric antibody
Take B4: the results for the concentration for a half-maximal effect (EC50) with cynomolgus LIV-1 and with human LIV-1 were 0.43 nM and 1.08 nM, respectively. Further, the “Top (MFI)” value in the test with cynomolgus LIV-1 turned out to be 6880 MFI; with human LIV-1, 12200 MFI.

B5: 92E4E10 (antibody, V domains shown)
VH: EVQLQQSGTVLARPGASVKISCKASGYRFTSYWMHWVKQRPGQGLEWIGAIYPGNSDTTYNQKFKGKAKLTAVTSASTAYMDLSSLTNEDSAVYYCTSLLLRSPFDYWGQGTTLTVSS
VL: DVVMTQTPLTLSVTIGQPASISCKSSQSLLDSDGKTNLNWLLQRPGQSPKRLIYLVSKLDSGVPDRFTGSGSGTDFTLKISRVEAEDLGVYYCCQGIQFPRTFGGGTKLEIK
notes: Tested as chimeric antibody
Turning to B5, the EC50 with cynomolgus LIV-1 was 0.15 nM; in the test with human LIV-1, 0.34 nM. For the same molecule, the figures for the “Top (MFI)” value with cynomolgus LIV-1 and in the test with human LIV-1 were 41300 MFI and 66200 MFI, respectively.

B6: 82C7C7 (antibody, V domains shown)
VH: EVQLQQSGAELVKPGASIKLSCTPSGFNIKDTFIHWVKQRPEQGLEWIGRIDPANGNTRYDPKFQGKATITADTSSNTAYLQLISLTSEDTAVYYCAGGSISTVVPDYWGQGTTLTVSS
VL: DVVVTQTPLSLPVSLGDQASISCRSSQSLVHNNGNTYLHWYLQKPGQSPKLLIYKVSNRFSGVPDRFSGSGSGTDFTLKISRVEAEDLGVYFCSQSTHVPYTFGGGTKLEIK
notes: Tested as chimeric antibody
For B6, in the test with cynomolgus LIV-1, the 50% effective concentration (EC50) worked out at 0.5 nM and the “Top (MFI)” value came to 7130 MFI. Moreover, in the test with human LIV-1, the EC50 was 0.61 nM and the “Top (MFI)” value stood at 12300 MFI.
